Experiments:
[1] = molecular target: T1, hGDF8 peptide 5 (48-69), C-terminal biotinylated (human, C-terminal biotin); experiment: Luminex peptide beads
T1 construct: also called peptide 5 C-term
T1 peptide: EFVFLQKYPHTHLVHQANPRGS
Description: Fourteen peptides (Table 10) were generated from mature hGDF8 (SEQ ID NO:340). Unmodified peptides, N-terminal biotinylated peptides (N-term), or C-terminal biotinylated peptides (C-term) were used to test and localize antibody binding. Full-length hGDF8, hGDF11 and unmodified peptides were each individually amine-coupled to xMAP® Multi-Analyte COOH Microspheres (or beads). Each of the biotinylated peptides was bound to xMAP® Multi-Analyte LumAvidin Microspheres. Peptide-bound beads suspension were then mixed with an equal volume of blocking buffer (PBS, 1%13SA, 0.05% Tween20, 0.05% Sodium azide) and then distributed into a 96 well filter plate (Millipore, MULTISCREEN® BV). Control and test anti-hGDF8 antibodies, at 2.5 μg/ml were then added to the peptide-bound beads suspension and were allowed to bind to the beads at RT, overnight. The antibody-incubated beads were then washed twice with PBST (PBS+0.05% Tween20) and incubated with either Phycoerythrin (PE) conjugated anti-hFC or PE-conjugated anti-mFC antibodies at RT for 45 min. The beads were washed again and the antibody binding signal to various peptides were detected with either LUMINEX® 100™ or 200™ instruments.

[2] = molecular target: T2, Activin A (UniProt P08476 311-426); experiment: SPR Biacore T100, 25°C
T2 sequence (looked up): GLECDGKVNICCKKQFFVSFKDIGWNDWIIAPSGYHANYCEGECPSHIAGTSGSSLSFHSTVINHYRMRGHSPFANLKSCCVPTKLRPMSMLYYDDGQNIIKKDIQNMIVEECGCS
Description: (§1) Additional antigen binding experiments were conducted in which GDF8 and GDF11 were applied over a surface of selected anti-GDF8 antibodies and control antibodies at 25° C. and 37° C. Equilibrium dissociation constants (KD values) for antigen binding to selected antibodies were determined by surface kinetics using a real-time biosensor surface plasmon resonance assay (BIACORE™ T100). […] Various concentrations (2.5-0.625 nM, 2-fold dilutions) of hGDF8 homodimer or hGDF11 homodimer (or in some experiments, Activin A) were injected over the captured antibody surfaces, and antigen-antibody binding and dissociation were monitored in real time. Kinetic analysis was performed to calculate KD, dissociation rate constants (kd), association rate constants (ka) and half-life of antigen/antibody complex dissociation. (NB=no binding observed).

[3] = molecular target: T3, Human GDF8 homodimer (mature human Growth and Differentiation Factor-8) (human, UniProt O14793 267-375); experiment: cell-based or functional assay
T3 sequence: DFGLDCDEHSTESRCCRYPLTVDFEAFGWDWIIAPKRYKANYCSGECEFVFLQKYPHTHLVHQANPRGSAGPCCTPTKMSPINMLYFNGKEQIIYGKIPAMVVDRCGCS

[4] = molecular target: T3, Human GDF8 homodimer (mature human …); experiment: SPR Biacore T100, captured on anti-hFc, 25°C
Description: as §1

[5] = molecular target: T3, Human GDF8 homodimer (mature human …); experiment: SPR Biacore T100, captured on anti-hFc, 37°C
Description: as §1

[6] = molecular target: T4, hGDF11 homodimer (human, UniProt O95390 299-407); experiment: GDF11-inducible luciferase bioassay, 0.4 nM GDF11 (legend: NB=no binding)
T4 sequence (looked up): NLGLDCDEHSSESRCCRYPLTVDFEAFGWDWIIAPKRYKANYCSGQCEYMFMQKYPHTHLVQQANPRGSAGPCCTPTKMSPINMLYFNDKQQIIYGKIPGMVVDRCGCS

[7] = molecular target: T5, GDF11 (from serum of treated C57BL6 mice) (mouse, UniProt Q9Z1W4 297-405, limits assumed); experiment: pull-down from serum of treated mice with anti human Fc beads, mass spectrometry
T5 sequence (looked up): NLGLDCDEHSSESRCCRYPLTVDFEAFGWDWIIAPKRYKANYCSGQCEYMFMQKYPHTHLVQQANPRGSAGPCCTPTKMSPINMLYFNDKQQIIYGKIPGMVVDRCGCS
Description: (§2) To examine the specificity of H4H1657N2 in vivo, C57BL6 mice were injected with drug, and serum from treated mice was subjected to a mass spectrometry based ligand “fishing” experiment. Briefly, drug (H4H1657N2, Control IV or isotype negative control) was injected multiple times (Day 0, D3, D7, D10) over a 14-day period into C57BL6 mice. Animals were sacrificed on D14 and serum was incubated with anti human Fc beads. The beads were washed and bound material was eluted with SDS-PAGE loading buffer. Eluted material was subjected to SDS-PAGE and gel slices corresponding to a molecular weight range of 5-20 kDa were excised. Samples were processed for mass spectrometry using standard reduction, alkylation and trypsinization conditions. Digests were separated on a nano C18 column and automatically spotted onto Bruker Anchor Targets. MALDI-MS (MS/MS) analysis (Bruker Ultraflextreme) was performed in an automated fashion, using LC-WARP (Bruker Daltonics). The mass spectra were searched using MASCOT (Matrix Science) and results were evaluated relative to the isotype control.

[8] = molecular target: T6, Inhibin beta A chain (from serum of treated C57BL6 mice) (mouse, UniProt Q04998 309-424, limits assumed); experiment: as above
T6 sequence (looked up): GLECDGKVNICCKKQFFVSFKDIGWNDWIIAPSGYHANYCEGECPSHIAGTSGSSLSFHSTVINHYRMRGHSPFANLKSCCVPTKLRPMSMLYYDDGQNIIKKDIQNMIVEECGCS
Description: as §2

B1: H4H1657N2 (antibody, V domains shown)
VH: EVQVLESGGDLVQPGGSLRLSCAASGFTFSAYAMTWVRQAPGKGLEWVSAISGSGGSAYYADSVKGRFTISRDNSKNTVYLQMNSLRAEDTAVYYCAKDGAWKMSGLDVWGQGTTVIVSS
VL: DIQMTQSPASLSASVGDRVTITCRASQDISDYLAWYQQKPGKIPRLLIYTTSTLQSGVPSRFRGSGSGTDFTLTISSLQPEDVATYYCQKYDSAPLTFGGGTKVEIK
notes: captured by anti-hFc, so human Fc
Does B1 bind [1]?
Result: no binding (tested: 2.5 µg/ml)

Does B1 bind [2]?
Result: no binding (tested: 2.5-0.625 nM)

And the “IC50, luciferase bioassay, 0.5 nM GDF8” value [3]?
The value was 780 pM.

What about the Kd [4] of the same binder?
Its Kd is 28.3 pM.

And the T1/2 [4]?
The T1/2 was 3.37 h.

What about the Kd [5] of the same binder?
The Kd was 37.9 pM.

What about the T1/2 [5] of the same binder?
Its T1/2 is 1.52 h.

Does B1 bind [6]?
Result: no binding

Does B1 bind [7]?
Result: no binding

Does B1 bind [8]?
Result: no binding

— patent US20160340421A1 (Regeneron, published 2016)
